Reference: US20200123254A1 (LENTIGEN TECHNOLOGY, published 2020)
Where a chain is given by its changes, count along the chain named.

T1: CD19-Fc peptide (R&D, Minneapolis, Minn.) (UniProt P15391 20-291)
T1 construct: Bought reagent; also called recombinant CD19-Fc peptide; not shown: Fc part; bought reagent, detected with anti-human Fc F(ab')2-AF647
T1 sequence (looked up): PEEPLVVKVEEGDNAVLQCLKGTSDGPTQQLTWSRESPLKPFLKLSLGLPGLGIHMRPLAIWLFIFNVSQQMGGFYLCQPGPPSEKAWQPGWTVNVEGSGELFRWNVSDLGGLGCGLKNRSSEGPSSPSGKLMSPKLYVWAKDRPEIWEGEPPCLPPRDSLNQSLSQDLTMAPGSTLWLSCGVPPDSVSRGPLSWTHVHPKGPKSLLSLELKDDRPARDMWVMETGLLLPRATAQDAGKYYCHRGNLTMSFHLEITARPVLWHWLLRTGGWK

B1: LTG2068 (LP-M19217-23-CD8 TM-41BB-CD3 zeta) CAR (other)
chain: EVQLVQSGAEVKKPGASVKVSCKASGYTFTGYYMHWVRQAPGQGLEWIGLINPSGGSTSYEQKFQGRVAMTRDTSTSTVYMELSSLRSEDTAVYYCARSDRGITATDAFDIWGQGTMVTVSSGGGGSGGGGSGGGGSQSVLTQPPSVSVAPGQTAKITCGGSDIGDKNVHWYQQKPGQAPVLVVYDDYDRPSGIPERFSGSNSGDAATLTISTVEVGDEADYFCQVWDGIGDPYWVFGGGTQLTVLGAAATTTPAPRPPTPAPTIASQPLSLRPEACRPAAGGAVHTRGLDFACDIYIWAPLAGTCGVLLLSLVITLYCKRGRKKLLYIFKQPFMRPVQTTQEEDGCSCRFPEEEEGGCELRVKFSRSADAPAYQQGQNQLYNELNLGRREEYDVLDKRRGRDPEMGGKPRRKNPQEGLYNELQKDKMAEAYSEIGMKGERRRGKGHDGLYQGLSTATKDTYDALHMQALPPR
notes: Chimeric antigen receptor on the surface of transduced primary human T cells; also called ScFv5-CD8TM-4-1BB-CD3 zeta
B2: LTG2070 (LP-M19217-38-CD8 TM-41BB-CD3 zeta) CAR (other)
chain: EVQLVQSGAEVKRPGASVKVSCKASGYTFTSYYMHWVRQAPGRGLEWMGLINPSGGSTSYAQEFQGRVTMTRDMSTSTVYMELSSLRSEDTAVYYCARSDRGISATDAFDIWGQGTMVTVSSGGGGSGGGGSGGGGSQSVLTQPPSVSVAPGQMAKITCGGSDIGNKNVHWYQQKPGQAPVLVVYDDYNRPSGIPERFSGSNSGDAATLTISTVEVGDEADYFCQVWDGSGDPYWVFGGGTQLTDLGAAATTTPAPRPPTPAPTIASQPLSLRPEACRPAAGGAVHTRGLDFACDIYIWAPLAGTCGVLLLSLVITLYCKRGRKKLLYIFKQPFMRPVQTTQEEDGCSCRFPEEEEGGCELRVKFSRSADAPAYQQGQNQLYNELNLGRREEYDVLDKRRGRDPEMGGKPRRKNPQEGLYNELQKDKMAEAYSEIGMKGERRRGKGHDGLYQGLSTATKDTYDALHMQALPPR
notes: Chimeric antigen receptor on the surface of transduced primary human T cells; also called ScFv7-CD8TM-4-1BB-CD3 zeta
B3: LTG2069 (LP-M19217-29-CD8 TM-41BB-CD3 zeta) CAR (other)
chain: B1 chain with G31S, I48M, L50M, E61A, A69T, D166N, V169A, P195S, I230S, Y234F
notes: Chimeric antigen receptor on the surface of transduced primary human T cells; also called ScFv6-CD8TM-4-1BB-CD3 zeta
B4: LTG2071 (LP-M19217-40-CD8 TM-41BB-CD3 zeta) CAR (other)
chain: B1 chain with K13R, G31S, E46V, I48M, E61A, A69T, I157T, D166N, F223V, I230S
notes: Chimeric antigen receptor on the surface of transduced primary human T cells; also called ScFv8-CD8TM-4-1BB-CD3 zeta

Target: T1, CD19-Fc peptide (R&D, Minneapolis, …)
Assay: flow cytometry of CAR-transduced primary human T cells stained with CD19-Fc then anti Fc-AF647; untransduced T cells set as 0%
Protocol: FIG. 3 depicts anti-CD19 CAR surface expression in primary human T cells. CAR T cells redirected to CD19 tumor antigen via the use of ScFv domains (as listed in each panel) were generated by lentiviral transduction with CAR expression constructs. CART detection was performed by flow cytometry. T cells were washed twice in cold PBS-EDTA buffer and stained with CD19-Fc peptide followed by anti Fc-AF647 reagent. At least 20,000 cells were acquired for each analysis. Cells were gated based on forward scatter and side scatter, singlet discrimination, and 7AAD negativity so that only viable cells were analyzed. Data were acquired on MACSQuant 10 flow cytometer in the APC channel. UTD, un-transduced negative control cells. The marker in each panel identifies the CAR-expressing population, and are listed as percent of total transduced T cells analyzed.
For cell staining, half a million CAR T transduced cells were harvested from culture, washed two times in cold AutoMACS buffer supplemented with 0.5% bovine serum albumin (Miltenyi Biotec), and CAR surface expression detected by staining with CD19-Fc peptide (R&D, Minneapolis, Minn.) followed by anti Fc-AF647 conjugate (Jackson ImmunoResearch, West Grove, Pa.). Non-transduced cells were used as negative controls. Dead cells in all studies were excluded by 7AAD staining (BD Biosciences, San Jose, Calif.). Cells were washed twice and resuspended in 200 ul Staining Buffer before quantitative analysis by flow cytometry. Flow cytometric analysis was performed on a MACSQuant®10 Analyzer (Miltenyi Biotec), and data plots were generated using FlowJo software (Ashland, Oreg.).
T cells were activated on culture Day 0 with TransAct T cell reagent (active engagement of CD3 and CD28 antigens, Miltenyi Biotec, Inc.) in the presence of IL-2 as described in Materials and Methods. On culture Day 8-10, expression of anti-CD19 CARs on T cell surface was detected by CD19-Fc peptide followed by anti Fc-AF647 and analyzed by flow cytometry.

| CAR expression level (percent of transduced T cells stained by CD19-Fc) [%] | Binder |
| --- | --- |
| 54 | B1 |
| 47 | B2 |
| 68 | B3 |
| 21 | B4 |
